According to the DeepSol protein solubility set:

Test: soluble on expression in E. coli; label from the status in PepcDB or PDB records

Row | Sequence | soluble on expression in E. coli
1 | MKEVYRYAYHYAGRPVGEGRLEVERRRGGVRASLQAEFLPPLPPGRQRWQTELDAEGFSLRFQERVEGKEVRVFAVERLEEEGVVLVSQGKESLAYPYLAPYHDPLSLFLALPGLALEPGEVVRFPMPGGRVYVERLPDVEVEGRARRQYRLRPGLSLVQVEEGRLVRVAQQVGRHVFEAVLLEAEGP | soluble
2 | MSFETKPNYLLLTNPDTPLSVCTSPYYSPSGKTASIPSSEASKPEGTNGQWSHLPTGATYVTDEFSSEFQIQNGSTAAQSGNANNYADPLSHRRYFNNVNGYNHHQFYDTASQASVSSPATSVTSSLSPPDSLSNGHTTQRHHIGKAISFCKVCGDKASGYHYGVTSCEGCKGFFRRSIQRKIDYRCLKQQVCEIKRESRNRCQYCRFKKCLDSGMSKDSVRQMKFRNAMRDDKSPDSVFVPEISTLERQEEVDAVYEAVLRAHTTFSFYTDIKIRSIVARPFNVRINEDSKMNRLNAWQIYAHEIDVDIKEVVNFVKEIPKFNFINGNDKAVLLRKNAFPLYLLRIVRGMSNRGLMLRDGRLIDFKSLQLLYGSLADEMLAFANHIITIGCTDGDIALFIVLILCQPLTTEQQFSTNFKSQLQLLEMFDFYKKVLFQKMTCRIDGCDTYKQLMKCIHELNRLNELHKQQLNILRENLSFLNLPPLVVEMFQLSTLPLPVNHNNQENQYTPAPEHQSPQPQQPTPNQQQTPVHC | not soluble
3 | MGSDKIHHHHHHMNGHLNDCLICDGKLEYLDAAEEMECVICHKKHLNNVRCINRHYICDECHSKRGAKIILEVCRTTDSKNPIEIMQKLMAKPFIHMHGPEHHILTGAALLAAYHNSGGQLDLNKALNEIERRAKQVPGGACGFWGCCGAAISTGMFISIATGATPLSEREWSLSNLITSKVLRRISALGGPRCCKRNCFTAAKVAVEFTGEQLAVNMELPVDICCFFSPNNHECKGALCPYSPQHSNS | not soluble
4 | MAHHHHHHMAYALVEADSISFSLKPADLCADSPLEYGSPREKETNGLSPCGDKGPLTPFGVRPHLFSKGWWRLVVLSSVPLDSYRAIPKDTWSFTEKGQLKQGSNALLFSYACTVSDRTDITLLLDVHSQRPIPFRIKIFRAGVEGPPVFVSEECVNHLFVPHVAVDVPEKVKNVAYIIEAWLDKEKVEEWERMRRLSQELKFLLAAEAARVKAEMKQQKELQEYHEDPRAFKERLLNQEMGPVENLVPTPLREQMSVSSKKGRPSVDKRRTLSNAAPSRQTIVRTSVTPSTPASAVAVHIDSIDPELVVTYDLRLYFSAKTDVKCVATGKDPLTTMRGLWVHQLILFLGKPLRSPVVAREGSVGSRRILLHLLKNYTRRII | not soluble
5 | KMFSYEGQVIIVTGDEKSTEFCNTATANYDSFRAGPVFDGTGLNPFCFVAHDFTADYLPNGQAKMFSSNVSYAQGDRIFDDVSTWDDYSLRVNHPLRIAGDRVYLQGHGYAPTFSIQWPNGEKRTQTVQWQPTDPTFFLSDGVVRFDPPAGMNDSVYDRRQHQLAIQGLFAPTASWEGENHELLTSRFPAMTDPAVAIDVYRGDNGLDSGKGQNLFKLDTSLVHSGQLQRLERVNLTKGESVTLDDGTVVTFEGAEEFANYQISHDPTQ | not soluble
6 | MGSDKIHHHHHHMTVCIACGSTKVEPFLDLHETTLANKFLAPEEIGAVEPRHPLVVGFCPECSHVQLTHLVPPAAMFEDYLYISSLSKTLVGHLHGLAATVIERFKLGADDLFIDVGCNDGTLLSEAKRRGVRILGIDPAKNLAPLAKKNGVDTLVAFFGTETAAKVVAEHGKASVVTATNVFPHIPVLDDLVKGLDVVLKPGGVFVAEAHYLGDLLDACAFDTVYHEHCSYWSLHAAQYMFQRHGFEVVDIQRLPIHHGQLRLFAMRKGEGQPTAAVATLLAEEVKRGMTGIECYRAFAKRVEAIREELHAAFAGFKAAGKTVVGYGAPAKGNTLLSYIGFGPEQLAYIADKSPLKQGRVTPGTHIPVVGPERLLADQPDYVLLLAWNFADEILVEQAEYRARGGKFILPVPEVKIV | not soluble
7 | GAEDHANHEHDDEMSAAAAHGVESLIYRRDTPFHPVRFNDWLDDWDGAIVRAKGFAWVASRPETVLGVSQAGPSVQAGPIGEWGNDDPSTRLVFIGQEMDGDALIGELDDCLATDKERTETFASDPFPREG | not soluble
8 | MAHHHHHHMAYPYNAYLGYTQPPTQYGQPPVVAGAHGHLPVTTPLPYNAQSAYGGAQPPMPTSTGVYAPSARHMNDNQELMEWFRAVDTDGSGAISVPELNAALSSAGVPFSLATTEKLLHMYDKNHSGEITFDEFKDLHHFILSMREGFRKRDSSGDGRLDSNEVRAALLSSGYQVSEQTFQALMRKFDRQRRGSLGFDDYVELSIFVCRVRNVFAFYDRERTGQVTFTFDTFIGGSVSIL | soluble
9 | MSSRAVSLLSRVISQNRGLASLRETVGERDASLLYEPKFQDSREFPEYNTINVRIQGHDFGSLEKYQAYIHKTAKRFGFTVVDSYAVAAQTQKAITYKPYSTVSESEIDMSTYDRVVRLSDVAAPRFSLFSQIIRAHIPIGVTMTVKEHEKVDEDSRYIPDLLLKQKQEELKALDDPNVRRNLGWE | not soluble
10 | SRMEQVIVKQGKDALTADAVFVSANPLSDSLLKSTEQLERSVMTRFSTMAFSDNGMQLISVRGVDESYPLMGELVLDGNESGRVKPNQLWLDERIMAQLEVTKGDNVTIGDADFTVSGAVLMEPGLSFNPFQQMPAAYIHQSDVEKTGAIQVGSRVQYRLFLKADNAALKQLQDKTELSPSDRWRTQDTASRSNEVFDRTTQ | not soluble
11 | MIILQANKIERSFAGEVLFDNINLQVDERDRIALVGKNGAGKSTLLKILVGEEEPTSGEINKKKDISLSYLAQDSRFESENTIYDEMLHVFNDLRRTERQLRQMELEMGEKSGEDLDKLMSDYDRLSENFRQAGGFTYEADIRAILNGFKFDESMWQMKIAELSGGQNTRLALAKMLLEKPNLLVLDEPTNHLDIETIAWLENYLVNYSGALIIVSHDRYFLDKVATITLDLTKHSLDRYVGNYSRFVELKEQKLVTEAKNYEKQQKEIAALEDFVNRNLVRASTTKRAQSRRKQLEKMERLDKPEAGKKSANMTFQSEKTSGNVVLTVENAAVGYDGEVLSQPINLDLRKMNAVAIVGPNGIGKSTFIKSIVDQIPFIKGEKRFGANVEVGYYDQTQSKLTPSNTVLDELWNDFKLTPEVEIRNRLGAFLFSGDDVKKSVGMLSGGEKARLLLAKLSMENNNFLILDEPTNHLDIDSKEVLENALIDFDGTLLFVSHDRYFINRVATHVLELSENGSTLYLGDYDYYVEKKATAEMSQTEEASTSNQAKEASPVNDYQAQKESQKEVRKLMRQIESLEAEIEELESQSQAISEQMLETNDADKLMELQAELDKISHRQEEAMLEWEELSEQV | not soluble
12 | STSPLSDLLNLDLSDTKKIIAEYIWIGGSGMDIRSKARTLPGPVSNPTKLPKWNYDGSSTDQAAGDDSEVILYPQAIFKDPFRKGNNILVMCDAYRPAGDPIPTNNRHKAVKIFDHPNVKAEEPWFGIEQGYTLLKKDVKWPLGWPLGGFPGPQGPYYCAVGADKAFGRDIVDAHYKACLYSGLSIGGANGEVMPGQWEFQISPTVGIGAGGQLWVARYILERITEICGVIVSFDPKPIQGDWNGAAAHTNFSTKSMRKDGGLDLIKEAIKKLEVKHKQHIAAYGEGNERRLTGKHETADINTFSWGVADRGASVRVGRDTEKEGKGYFEDRRPSSNMDPYLVTSMIAETTIL | soluble
13 | MSLSDPTNNKPAPVLRESATFDRLTIQEIQRAAETGIYDIRGGGTKRKLPHFDDLLLLGASVSRYPLEGYREKCGTDVVLGNRFAKKPLYLKIPVTIAGMSFGALSANAKEALGRGATIAGTSTTTGDGGMTPEERGQSQHLVYQYLPSRYGMNPDDLRKADAIEIVLGQGAKPGGGGMLLGMKVTERVAGMRTLPVGVDQRSACRHPDWTGPDDLAIKIAEIREITDWEKPIYVKIGASRPYYDVKLAVKAGADVIVLDGMQGGTAATQEVFIEHVGIPILPAIPQAVQALQEMGMHRKVQLIVSGGIRNGADVAKAMALGADAVAIGTAALIALGDNHPRLDEELKKIGSAAGFYDDWQNGRDPAGITTQDPELSKRLDPVEGGRRLANYLRVLVLEAQTMARACGKSHLHNLDPEDLVALTVESAAMARVPLAGTSWIPGSGSKGIITITTDPNSSSVDKLAAALEHHHHHH | soluble
14 | MGHHHHHHSHMLFEEAFVHLKPQVCLPLWISWAEWSEGAKSQEDTEAVFKKALLAVIGADSVTLKNKYLDWAYRSGGYKKARAVFKSLQESRPFSVDFFRKMIQFEKEQESCNMANIREYYERALREFGSADSDLWMDYMKEELNHPLGRPENCGQIYWRAMKMLQGESAEAFVAKHAMHQTGHL | not soluble
15 | MGNYFPYAFEDKRYHTWNYHLKNKFGQKIFKVALDGGFDCPNRDGTVAHGGCTFCSAAGSGDFAGNRAEPIEVQFKKIKERMHEKWSEGQYIAYFQAFTNTHAPVEVLKEKYEPVLKEDGVVGLSIATRPDCLPDDVVEYLAELNQRTYLWVELGLQTVHQSTSDLINRAHDMQTYYDGVTKLRKHNINVCTHIINGLPGENYDMMMETAKEVAQMDVQGIKIHLLHLLKGTPMVKQYEKGMLEFMSQQDYTNLVCDQLEVLPPEMIVHRITGDGPIDLMVGPMWSVNKWEVLNEIDNELARRNSYQGKMNKQSIQS | not soluble
16 | DIGCYTLGLLPPFDAQDSSTDMGSSIGIANGVYRATGNIPIAVIGDSTFFHSGISALANAVYNQTPMLVLVLDNRSTAMTGQQPSPSKEIDIGEVAKGLGVKYVRYVDPFDVNSSIRELSNALKWVKDNKQPAVVIAKRACALLVMDNVEESNLPKA | not soluble
17 | MKTLTDTDHIHTLIAEGEHQQQDFKFEISDARKIAKTLSAFANTDGGRLLIGVKDNGRIAGVRSEEEKYMIEAAAQLYCIPEIDYTLQTYIVEGKQVLVATIEENPHKPVYAKDENGKPLAYLRIKDENILATPIHLRVWQQSGSPRGELIRYTEREQLLLDLLEQGTLLSLNRYCRQTGISRRAAEHLLAKFVRYDIVEPVFENHKFYFRMKNELEHHHHHH | soluble
18 | MCDIGNRQAYQRAQLDALLGRVRLQANQMEWRPGIYVGEGTTIASSAQLEPPLWIGQHCYIGEEVQLKAGTVIGDESRIEAGACLDRAVVWNRVQIGQRSHLEGCVLEHHHHHH | not soluble
19 | MSNLRIAYDRLRSMSRTEENPTVQAMQIALHIPKNDPPARSEILQAAAQAVVACCLSEESVTDEWYGNRLQQWYDHRIRKVARRGRNAAWERVTTLPGVSSVSGSAEARAFVPGPVDSVDPLLKKLQISHTDVPFDSPADPTEGPVLYVDRGLGMSVGKTAAQVGHGSMLLAAAQPFEWVERWADQGYRLSVREVDSEVFRKAAEQPGAVHVIDAGFTEVAPSSLTVVALPMLLF | not soluble
20 | MIMNHMPKKIVIIGAGAGGGISLSQLRRALSNEDVEITIIDQTGRTDFQPSYVFLALGEKKPEEISRDISQLNDSRVRAVKDTVISVDAANRVVKTSGGSYQYDYLIMSPGPSIDPSSLKGHEATHSVWTMEDSLRLRDAVKNFKGGNVLISVSTQWYKCPPVPWEMALLLDDYFRRKNIRDKVKITVAHPVSRPMEMYGPGLSEPFSKMLDDRNIEGIYGRRVSSVDAEKKRAIMDNGETVGFDLSIVAPPHLPPDFIKNNDDLRSPRGWAATNIRDFRNPKYEDVFAIGDVIAPTIQIGMAGVLAHFQADTVSSAIAEEIAGYPFMEYNKVAVCIIATGGSGVFSYCDLAGKLTDPKVKFPECRMIGNDPLFRFAHDLYEVNFLSSIYGSRLEHHHHHH | not soluble
21 | KRKFACVECRQQKSKCDAHERAPEPCTKCAKKNVPCILKRDFRRTYKRARNEAIEKRFKELTRTLTNLTSDE | soluble
22 | GSPEKILAQIIQEHREGLDWQEAATRASLSLEETRKLLQSMAAAGQVTLLRVENDLYAISTERYQAWWQAVTRALEEFHSRYPLRPGLAREELRSRYFSRLPARVYQALLEEWSREGRLQLAANTVALAGFTPSFSETQKKLLKDLEDKYRVSRWQPPWVKEVAGSFNLDPSELEELLHYLVREGVLVKINDEFYWHRQALGEAREVIKNLASTGPFGLAEARDALGSSRKYVLPLLEYLDQVKFTRRVGDKRVVVGN | soluble
